Data set [1] has as its system SULT1E1. The data set is described as follows: SULT1E1 allozyme substrate kinetics (apparent Km, Vmax) with E2 and PAPS as cosubstrates. The format is biochemical, human. The following applies: for Vmax, PAPS as Varied Substrate / Km / Vmax, E2 as Varied Substrate: mean ± SEM (n = 3); for apparent Km for PAPS, fold higher than the wild type enzyme: PAPS as substrate; for apparent Km for PAPS, fold higher than the wild type enzyme / apparent Km for estradiol, fold higher than the wild type enzyme: versus wild type; for apparent Km for estradiol, fold higher than the wild type enzyme: estradiol as substrate. An excerpt:
Other biochemical properties of allozymes, such as apparent Km values, also can be altered relative to the reference SULT1E1. Apparent Km values can be calculated, for example, by using the method of Wilkinson with a computer program written by Cleland. Wilkinson (1961) Biochem. J. 80:324-332 and Cleland (1963) Nature 198:463-365. As described herein, the apparent Km values for PAPS varied more than 3-fold among the allozymes tested (Asp22Tyr, Ala32Val, and Pro253His).
Apparent Km values for each allozyme were determined with both cosubstrates. Initial experiments used 10-fold serial dilutions of E2 that ranged from 10^−3 to 10^−9 M. Apparent Km values were calculated by using the method of Wilkinson with a computer program written by Cleland (see, Wilkinson (1961) Biochem J 80:324-332; and Cleland (1963) Nature 198:463-365). Maximal activity for all allozymes was found at E2 concentrations near 100 nM. A second set of experiments was performed in the presence of 0.4 μM PAPS using eight concentrations of E2 that varied from 3.1 nM to 400 nM.

Data set [2] concerns SULT1E1. The data set is described as follows: Enzyme thermal stability (T50) of recombinant SULT1E1 allozymes. The format is physicochemical, human. The following applies: for T50 value as compared to the wild-type enzyme: in words; for Thermal Stability T50: temperature resulting in 50% thermal inactivation, 15 minutes at 28° C. to 46° C., mean ± SEM (n = 3). The procedure: Enzyme thermal stability was measured by diluting COS-1 cell supernatant preparations for each of the recombinant SULT1E1 allozymes and incubating them in a water bath for 15 minutes at temperatures ranging from 28° C. to 46° C. The samples were placed on ice immediately after incubation. Aliquots of the same supernatant preparations also were kept on ice as controls. Enzyme activity was measured in both heated and unheated samples, and blank values were determined for each temperature studied.

The mark [3] stands for this setting: 50 nM E2, PAPS 2.7 nM to 150 nM.
[4] abbreviates: 50 nM E2, PAPS 2.7 nM to 150 nM, read-out: Apparent Km, PAPS as Varied Substrate.
[5] abbreviates: 0.4 μM PAPS, E2 3.1 nM to 400 nM.
[6] abbreviates: 0.4 μM PAPS, E2 3.1 nM to 400 nM, read-out: Apparent Km, E2 as Varied Substrate.

Where two headings read alike, the source gives them in different places. Marks after values point to notes of the source that are not given here.

A word on the Km: it is the substrate concentration at which the rate is half of its maximum.

B1: Ala32Val: SULT1E1 allozyme with valine in place of alanine at residue 32 (thymine at nucleotide 95) (protein, UniProt P49888 1-294, looked up, variant A32V)
Sulfotransferase 1E1: MNSELDYYEKFEEVHGILMYKDFVKYWDNVEVFQARPDDLVIATYPKSGTTWVSEIVYMIYKEGDVEKCKEDVIFNRIPFLECRKENLMNGVKQLDEMNSPRIVKTHLPPELLPASFWEKDCKIIYLCRNAKDVAVSFYYFFLMVAGHPNPGSFPEFVEKFMQGQVPYGSWYKHVKSWWEKGKSPRVLFLFYEDLKEDIRKEVIKLIHFLERKPSEELVDRIIHHTSFQEMKNNPSTNYTTLPDEIMNQKLSPFMRKGITGDWKNHFTVALNEKFDKHYEQQMKESTLKFRTEI
Consider B1, for which the “Vmax, PAPS as Varied Substrate” value in the data set with SULT1E1 [1] (setting [3]) is 5.7 ± 0.1^a nmol/hr/β-galactosidase units. Also, the Km in the data set with SULT1E1 [1] (setting [4]) came out at 65 ± 4.2 nM. In the data set with SULT1E1 [1] (setting [5]), the “Vmax, E2 as Varied Substrate” value was 22.8 ± 6.6 nmol/hr/β-galactosidase units. Moreover, the Km in the data set with SULT1E1 [1] (setting [6]) stood at 44 ± 5 nM. In the data set with SULT1E1 [1], the “apparent Km for PAPS, fold higher than the wild type enzyme” value was “comparable to those of the wild type SULT1E1 enzyme” and the “apparent Km for estradiol, fold higher than the wild type enzyme” value is “comparable to those of the wild type SULT1E1 enzyme”. For the same molecule, in the data set with SULT1E1 [2], the “T50 value as compared to the wild-type enzyme” value is on record as “reduced T50 values” and the “Thermal Stability T50” value stood at 36.7 ± 1.2 °C.

B2: Wild type: reference human SULT1E1 enzyme (SEQ ID NO:7, GenBank U08098), recombinantly expressed in COS-1 cells (protein, listed as Homo sapiens)
chain: MNSELDYYEKFEEVHGILMYKDFVKYWDNVEAFQARPDDLVIATYPKSGTTWVSEIVYMIYKEGDVEKCKEDVIFNRIPFLECRKENLMNGVKQLDEMNSPRIVKTHLPPELLPASFWEKDCKIIYLCRNAKDVAVSFYYFFLMVAGHPNPGSFPEFVEKFMQGQVPYGSWYKHVKSWWEKGKSPRVLFLFYEDLKEDIRKEVIKLIHFLERKPSEELVDRIIHHTSFQEMKNNPSTNYTTLPDEIMNQKLSPFMRKGITGDWKNHFTVALNEKFDKHYEQQMKESTLKFRTEI
For B2, in the data set with SULT1E1 [1] (setting [3]), the “Vmax, PAPS as Varied Substrate” value is 27.2 ± 0.7^a nmol/hr/β-galactosidase units. In addition, the Km was determined as 56 ± 2.9 nM in the data set with SULT1E1 [1] (setting [4]) and 30 ± 5 nM in the data set on SULT1E1 [1] (setting [6]). Further, the “Vmax, E2 as Varied Substrate” value with SULT1E1 [1] (setting [5]) is 26.8 ± 4.4 nmol/hr/β-galactosidase units. The “Thermal Stability T50” value in the data set with SULT1E1 [2] turned out to be 38.5 ± 0.92 °C.

B3: Pro253His: SULT1E1 allozyme with histidine in place of proline at residue 253 (adenine at nucleotide 758) (protein, UniProt P49888 1-294, looked up, variant P253H)
Sulfotransferase 1E1: MNSELDYYEKFEEVHGILMYKDFVKYWDNVEAFQARPDDLVIATYPKSGTTWVSEIVYMIYKEGDVEKCKEDVIFNRIPFLECRKENLMNGVKQLDEMNSPRIVKTHLPPELLPASFWEKDCKIIYLCRNAKDVAVSFYYFFLMVAGHPNPGSFPEFVEKFMQGQVPYGSWYKHVKSWWEKGKSPRVLFLFYEDLKEDIRKEVIKLIHFLERKPSEELVDRIIHHTSFQEMKNNPSTNYTTLPDEIMNQKLSHFMRKGITGDWKNHFTVALNEKFDKHYEQQMKESTLKFRTEI
In the case of B3, the “Vmax, PAPS as Varied Substrate” value with SULT1E1 [1] (setting [3]) was 34.8 ± 0.2^a nmol/hr/β-galactosidase units. The Michaelis-Menten constant (Km) in the data set with SULT1E1 [1] (setting [4]) came to 180 ± 7.5 nM. Further, the “Vmax, E2 as Varied Substrate” value with SULT1E1 [1] (setting [5]) was 58.6 ± 2.5^b nmol/hr/β-galactosidase units. For the same molecule, the Km in the data set with SULT1E1 [1] (setting [6]) came to 97 ± 7 nM. Further, in the data set on SULT1E1 [1], the “apparent Km for PAPS, fold higher than the wild type enzyme” value is on record as roughly 2.8 fold and the “apparent Km for estradiol, fold higher than the wild type enzyme” value is reported as “approximately 2.5 fold”. In addition, the “Thermal Stability T50” value in the data set on SULT1E1 [2] worked out at 38.4 ± 0.46 °C.

B4: Asp22Tyr: SULT1E1 allozyme with tyrosine in place of aspartic acid at residue 22 (thymine at nucleotide 64) (protein, UniProt P49888 1-294, looked up, variant D22Y)
Sulfotransferase 1E1: MNSELDYYEKFEEVHGILMYKYFVKYWDNVEAFQARPDDLVIATYPKSGTTWVSEIVYMIYKEGDVEKCKEDVIFNRIPFLECRKENLMNGVKQLDEMNSPRIVKTHLPPELLPASFWEKDCKIIYLCRNAKDVAVSFYYFFLMVAGHPNPGSFPEFVEKFMQGQVPYGSWYKHVKSWWEKGKSPRVLFLFYEDLKEDIRKEVIKLIHFLERKPSEELVDRIIHHTSFQEMKNNPSTNYTTLPDEIMNQKLSPFMRKGITGDWKNHFTVALNEKFDKHYEQQMKESTLKFRTEI
As for B4, the “Vmax, PAPS as Varied Substrate” value in the data set on SULT1E1 [1] (setting [3]) is on record as 1.9 ± 0.1^a nmol/hr/β-galactosidase units. Besides, the Km in the data set on SULT1E1 [1] (setting [4]) came out at 240 ± 9.2 nM. For the same molecule, the “Vmax, E2 as Varied Substrate” value in the data set on SULT1E1 [1] (setting [5]) is 4.7 ± 0.3^b nmol/hr/β-galactosidase units. Besides, the Km in the data set on SULT1E1 [1] (setting [6]) is 220 ± 30 nM. In the data set with SULT1E1 [1], the “apparent Km for PAPS, fold higher than the wild type enzyme” value worked out at 3.3 fold and the “apparent Km for estradiol, fold higher than the wild type enzyme” value is 6 fold. Moreover, in the data set on SULT1E1 [2], the “T50 value as compared to the wild-type enzyme” value is listed as “reduced T50 values” and the “Thermal Stability T50” value is on record as 35.0 ± 0.32^c ° C.

The values are drawn from patent publication US7803921B2, “Sulfotransferase 1E1 sequence variants” (Mayo Foundation for Medical Education and Research, priority 2002, dated 2010).
